Assay results reported in IntAct's records for PubMed 22751141.

Molecular target: GATA3, P23771-2
Sequence (P23771 other isoform, or with tags, fused parts or gaps): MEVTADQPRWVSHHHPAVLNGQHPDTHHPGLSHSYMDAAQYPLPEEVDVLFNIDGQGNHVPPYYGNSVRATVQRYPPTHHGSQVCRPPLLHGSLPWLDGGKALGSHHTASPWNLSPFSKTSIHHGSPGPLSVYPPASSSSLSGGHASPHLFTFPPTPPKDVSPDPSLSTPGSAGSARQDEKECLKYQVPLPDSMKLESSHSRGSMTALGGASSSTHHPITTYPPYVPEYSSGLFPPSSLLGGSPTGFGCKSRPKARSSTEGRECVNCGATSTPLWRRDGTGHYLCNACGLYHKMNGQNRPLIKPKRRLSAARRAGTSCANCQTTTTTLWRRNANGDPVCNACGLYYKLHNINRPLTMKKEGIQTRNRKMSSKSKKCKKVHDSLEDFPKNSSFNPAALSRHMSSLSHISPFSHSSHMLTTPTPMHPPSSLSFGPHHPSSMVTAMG

Substance | effect of a mutation on the interaction
Transcription factor SOX-4 (Mus musculus), Q06831 R61A;P62A | decreasing interaction
Transcription factor SOX-4 (Mus musculus), Q06831 F66A;M67A | decreasing interaction
